Measured values from patent US20100291677A1.
Blank lines part the entries; values can stand above or below the substance they belong to.

How the values were obtained:
Test in all cases: cell-based or functional assay
TGF-beta = TGF-beta (UniProt P01137)
[1] = target: FSTL1 (Follistatin-like 1) protein (human) (UniProt Q12841)
[2] = target: IL-13Ra2 (interleukin 13 alpha 2 receptor) protein (human) (UniProt Q14627)
[3] = target: MCP1 (monocyte chemoattractant protein-1) protein (human) (UniProt P13500)
[4] = target: TSP1 (thrombospondin-1) protein (human) (UniProt P07996)
IL-10 protein = IL-10 protein (UniProt P22301)
UniProt P22301, sequence (P22301 19-178 limits assumed): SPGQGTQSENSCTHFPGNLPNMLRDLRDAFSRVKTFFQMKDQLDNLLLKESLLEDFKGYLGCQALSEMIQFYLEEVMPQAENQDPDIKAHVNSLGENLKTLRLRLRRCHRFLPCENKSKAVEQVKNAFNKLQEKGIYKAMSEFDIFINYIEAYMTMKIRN

UniProt P07996, sequence (P07996 19-1170 limits assumed): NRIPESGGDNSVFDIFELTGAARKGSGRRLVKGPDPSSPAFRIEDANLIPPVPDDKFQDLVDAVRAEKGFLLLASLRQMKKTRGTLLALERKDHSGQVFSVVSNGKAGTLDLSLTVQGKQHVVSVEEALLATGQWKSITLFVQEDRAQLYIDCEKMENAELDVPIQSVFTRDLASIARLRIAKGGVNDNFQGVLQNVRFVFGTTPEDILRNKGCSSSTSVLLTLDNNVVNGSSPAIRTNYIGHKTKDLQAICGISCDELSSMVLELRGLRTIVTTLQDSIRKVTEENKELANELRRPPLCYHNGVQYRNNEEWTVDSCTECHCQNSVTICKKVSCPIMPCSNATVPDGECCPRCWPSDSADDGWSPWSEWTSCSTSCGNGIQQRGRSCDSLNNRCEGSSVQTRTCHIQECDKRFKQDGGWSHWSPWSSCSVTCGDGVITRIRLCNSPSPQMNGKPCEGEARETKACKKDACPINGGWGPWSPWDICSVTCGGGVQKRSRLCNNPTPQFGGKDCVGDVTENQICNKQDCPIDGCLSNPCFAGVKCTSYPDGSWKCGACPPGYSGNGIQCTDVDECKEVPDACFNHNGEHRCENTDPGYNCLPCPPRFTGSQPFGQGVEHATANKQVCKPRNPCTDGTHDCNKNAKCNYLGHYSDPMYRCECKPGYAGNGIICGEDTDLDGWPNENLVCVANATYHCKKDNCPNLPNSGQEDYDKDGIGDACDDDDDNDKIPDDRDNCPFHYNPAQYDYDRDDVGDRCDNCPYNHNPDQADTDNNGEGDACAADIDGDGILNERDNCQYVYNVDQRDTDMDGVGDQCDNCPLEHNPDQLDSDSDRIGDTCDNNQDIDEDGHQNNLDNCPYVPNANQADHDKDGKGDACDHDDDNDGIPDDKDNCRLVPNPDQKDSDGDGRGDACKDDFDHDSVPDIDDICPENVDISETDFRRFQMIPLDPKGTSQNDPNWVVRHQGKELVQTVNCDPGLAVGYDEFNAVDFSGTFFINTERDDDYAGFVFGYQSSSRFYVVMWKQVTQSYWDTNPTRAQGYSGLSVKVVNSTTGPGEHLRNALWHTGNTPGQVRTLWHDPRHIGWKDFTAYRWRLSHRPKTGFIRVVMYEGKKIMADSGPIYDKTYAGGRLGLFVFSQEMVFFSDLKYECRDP
UniProt Q14627, sequence (Q14627 27-380 limits assumed): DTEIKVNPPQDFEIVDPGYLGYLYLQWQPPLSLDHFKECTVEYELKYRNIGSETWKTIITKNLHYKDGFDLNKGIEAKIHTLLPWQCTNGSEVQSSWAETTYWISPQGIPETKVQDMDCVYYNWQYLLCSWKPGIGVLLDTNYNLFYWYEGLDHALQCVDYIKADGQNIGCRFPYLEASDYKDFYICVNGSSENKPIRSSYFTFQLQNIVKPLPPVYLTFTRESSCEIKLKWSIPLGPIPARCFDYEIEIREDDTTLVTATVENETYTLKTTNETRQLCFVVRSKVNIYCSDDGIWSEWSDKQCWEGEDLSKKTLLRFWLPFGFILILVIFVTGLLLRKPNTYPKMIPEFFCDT
UniProt Q12841, sequence (Q12841 21-308 limits assumed): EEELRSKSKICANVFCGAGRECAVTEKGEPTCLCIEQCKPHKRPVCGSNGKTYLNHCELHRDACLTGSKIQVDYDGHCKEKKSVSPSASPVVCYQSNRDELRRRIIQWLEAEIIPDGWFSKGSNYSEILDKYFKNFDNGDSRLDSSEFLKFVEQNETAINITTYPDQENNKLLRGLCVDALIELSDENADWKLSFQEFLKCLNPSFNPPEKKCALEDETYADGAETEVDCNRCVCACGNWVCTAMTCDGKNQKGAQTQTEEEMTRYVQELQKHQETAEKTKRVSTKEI
UniProt P13500, sequence (P13500 24-99 limits assumed): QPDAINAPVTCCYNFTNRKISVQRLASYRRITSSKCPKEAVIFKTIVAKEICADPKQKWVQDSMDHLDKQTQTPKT
UniProt P01137, sequence (P01137 279-390 limits assumed): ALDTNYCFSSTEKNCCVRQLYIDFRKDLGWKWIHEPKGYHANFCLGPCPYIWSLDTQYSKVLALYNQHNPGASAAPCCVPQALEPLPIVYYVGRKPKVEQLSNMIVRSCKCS

expression level of FoxP3 protein in CD4+ cells, F3 clone with antibody (FIG. 6) (TGF-beta): 23.4
expression level of FoxP3 protein in CD4+ cells, F3 clone with antibody (FIG. 7) (TGF-beta): 30.6
expression level of FoxP3 protein in CD4+CD25+ cells, F3 clone with antibody (TGF-beta): 28.9
expression level of FoxP3 protein in CD4+CD25- cells, F3 clone with antibody (TGF-beta): 28.4
Substance: anti-TGF-beta1 antibody (R&D #MAB246)

decrease in cellular infiltration capability of F3 cells (matrigel Transwell, antibody at 1 ug/ml) [1]: 45%
expression level of FoxP3 protein in CD4+ cells, F3 clone with antibody (FIG. 6; 35.34 without) [1]: 14.9
expression level of FoxP3 protein in CD4+ cells, F3 clone with antibody (FIG. 7; 38.39 without) [1]: 34.7
expression level of FoxP3 protein in CD4+CD25+ cells, F3 clone with antibody [1]: 29.9
expression level of FoxP3 protein in CD4+CD25- cells, F3 clone with antibody [1]: 32.6
Substance: anti-FSTL1 antibody (R&D #MAB1694)

FoxP3 protein expression in CD8+ cells, B11 cells (FIG. 14) [2]: 10.2
expression level of FoxP3 protein in CD4+ cells, F3 clone with antibody (FIG. 6) [2]: 11.9
expression of FoxP3 protein enhanced by the culture supernatant of B11 clone (FIG. 8; 23.69 without antibody) [2]: 7.6
Substance: anti-IL-13Ra2 antibody (R&D #AF146)

FoxP3 protein expression in CD8+ cells, F3 cells (FIG. 13) [3]: 12
decrease in cellular infiltration capability of F3 cells (matrigel Transwell, antibody at 1 ug/ml) [3]: 45%
expression level of FoxP3 protein in CD4+ cells, F3 clone with antibody (FIG. 6; 35.34 without) [3]: 16.3
expression level of FoxP3 protein in CD4+ cells, F3 clone with antibody (FIG. 7; 38.39 without) [3]: 22.9
expression level of FoxP3 protein in CD4+CD25+ cells, F3 clone with antibody [3]: 22.1
expression level of FoxP3 protein in CD4+CD25- cells, F3 clone with antibody [3]: 19
expression of FoxP3 protein enhanced by the culture supernatant of B11 clone (FIG. 8) [3]: 4.69
Substance: anti-MCP1 antibody (BD PharMingen #551226)

FoxP3 protein expression in CD8+ cells, F3 cells (FIG. 13) [4]: 5.28
expression level of FoxP3 protein in CD4+ cells, F3 clone with antibody (FIG. 6; 35.34 without) [4]: 9.26
expression level of FoxP3 protein in CD4+ cells, F3 clone with antibody (FIG. 7; 38.39 without) [4]: 21.4
expression level of FoxP3 protein in CD4+CD25+ cells, F3 clone with antibody [4]: 27.8
expression level of FoxP3 protein in CD4+CD25- cells, F3 clone with antibody [4]: 16.6
Substance: anti-TSP1 antibody (ABCAM #ab3131)

expression level of FoxP3 protein in CD4+ cells, F3 clone with antibody (FIG. 6) (IL-10 protein): 11.4
expression level of FoxP3 protein in CD4+ cells, F3 clone with antibody (FIG. 7) (IL-10 protein): 30.9
expression level of FoxP3 protein in CD4+CD25+ cells, F3 clone with antibody (IL-10 protein): 29.9
expression level of FoxP3 protein in CD4+CD25- cells, F3 clone with antibody (IL-10 protein): 28.1
Substance: anti-IL-10 antibody (R&D #MAB2171)
